B1: INTS3 (parent)
chain: DLNSKGKKREFRFHPIKETVVEEP
B2: FBF1 (parent)
chain: FGDSPKAEKRQIGDQEGPRPARST
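Note: lentivirally expressed fusions sorted by FACS into six bins by GFP to DsRed ratio, PSI derived from sequencing read proportions per bin multiplied by bin number.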

The first series covers variants of B1. The series can be described thus: protein stability index of a GFP-peptide fusion (GPS, HEK-293T) (PSI 1-6); higher = more stable. The following applies: c terminus: a fixed tail appended.
For ELNSKGKKREFRFHPIKETVVEEP [D1E], the protein stability index is 2.43.

As to GLNSKGKKREFRFHPIKETVVEEP [D1G], the protein stability index was 2.23.

Consider NLNSKGKKREFRFHPIKETVVEEP [D1N], for which the protein stability index worked out at 1.56. Same read-out and setting: for ALNSKGKKREFRFHPIKETVVEEP [D1A] the value was 2.01; for LLNSKGKKREFRFHPIKETVVEEP [D1L], 2.23; for QLNSKGKKREFRFHPIKETVVEEP [D1Q], 2.02.

On to RLNSKGKKREFRFHPIKETVVEEP [D1R], for which the protein stability index was 1.97. On to KLNSKGKKREFRFHPIKETVVEEP [D1K], for which the protein stability index amounted to 2.23. On to ILNSKGKKREFRFHPIKETVVEEP [D1I], for which the protein stability index amounted to 1.28.

As to CLNSKGKKREFRFHPIKETVVEEP [D1C], the protein stability index was 2.26. On the same count and under the same terms, for MLNSKGKKREFRFHPIKETVVEEP [D1M] the value was 1.86; for HLNSKGKKREFRFHPIKETVVEEP [D1H], 2.83.

In the case of PLNSKGKKREFRFHPIKETVVEEP [D1P], the protein stability index is 1.48. Take FLNSKGKKREFRFHPIKETVVEEP [D1F]: the protein stability index was found to be 2.24.

The variants in a further series derive from B2. The description is as above. The settings on record: c terminus: a fixed tail appended.
As to FGDSPKYEKRQIGDQEGPRPARST [A7Y], the protein stability index was determined as 4. The same measure, in the same setting: for FGDSPKREKRQIGDQEGPRPARST [A7R] the value was 5.15; for FGDSPKAEKRQIGDQEGPRPARDT [S23D], 5.31; for FGDSPKAEKRQIGDQEGPRPARYT [S23Y], 5.37. Same read-out and setting: for FGDSPKAEKRQIGDQEGPRPARLT [S23L] the value was 4.98; for FGDSPKAEKDQIGDQEGPRPARST [R10D], 5.29.

Take FGDSPKAEKWQIGDQEGPRPARST [R10W]: the protein stability index stood at 3.46. The same measure, in the same setting: for FGDSPKAEYRQIGDQEGPRPARST [K9Y] the value was 4.74; for FGDSPKAEQRQIGDQEGPRPARST [K9Q], 5.53. The same measure, in the same setting: for FGDSPKAEERQIGDQEGPRPARST [K9E] the value was 5.1; for FGDSPKAEPRQIGDQEGPRPARST [K9P], 5.54.

As for FGDSPKAEKRQIGYQEGPRPARST [D14Y], the protein stability index was found to be 4.54. The same measure, in the same setting: for FGDSPKAEKRQIGQQEGPRPARST [D14Q] the value was 4.42; for FGDSPKAEKRQIGPQEGPRPARST [D14P], 5.09. As to FGDSRKAEKRQIGDQEGPRPARST [P5R], the protein stability index is 4.75.

As to FGDSKKAEKRQIGDQEGPRPARST [P5K], the protein stability index was 4.43. The same measure, in the same setting: for FGDSMKAEKRQIGDQEGPRPARST [P5M] the value was 4.88. On to FGDSIKAEKRQIGDQEGPRPARST [P5I], for which the protein stability index came to 4.89. Same read-out and setting: for FGDSPKAEKRQIGDQEGPRPAIST [R22I] the value was 5.46.

Take FGDSPKAEKRQIGDQEGPRPAHST [R22H]: the protein stability index was determined as 4.97. Same read-out and setting: for FGDSPKAEKRQIGDQEGPRPAKST [R22K] the value was 4.92; for FGDSPKAEKRQIGDQEGPRPAAST [R22A], 5.15; for FGDSPKAEKRQIGDQEGPRPAQST [R22Q], 5.16. Still for that read-out and setting: for FGDSPFAEKRQIGDQEGPRPARST [K6F] the value was 4.06; for FGDSPDAEKRQIGDQEGPRPARST [K6D], 5.22. On the same count and under the same terms, for FGDSPTAEKRQIGDQEGPRPARST [K6T] the value was 5.56; for FGDTPKAEKRQIGDQEGPRPARST [S4T], 4.16. As for FGDDPKAEKRQIGDQEGPRPARST [S4D], the protein stability index was 5.43. Still for that read-out and setting: for FGDIPKAEKRQIGDQEGPRPARST [S4I] the value was 5.33; for FGDAPKAEKRQIGDQEGPRPARST [S4A], 4.3.

In the case of FGDVPKAEKRQIGDQEGPRPARST [S4V], the protein stability index amounted to 5.61. Still for that read-out and setting: for FGDHPKAEKRQIGDQEGPRPARST [S4H] the value was 5.43; for FGDSPKAFKRQIGDQEGPRPARST [E8F], 3.27. FGDSPKARKRQIGDQEGPRPARST [E8R]: the protein stability index was found to be 4.43.

With FGDSPKAAKRQIGDQEGPRPARST [E8A], the protein stability index came to 4.84. Still for that read-out and setting: for FGDSPKAEKRQIGDQEGPRQARST [P20Q] the value was 5.39; for FGDSPKAEKRQIGDQEGPRKARST [P20K], 4.72; for FGDSPKAEKRQIGDQEGPRVARST [P20V], 4.54. Same read-out and setting: for FGDSPKAEKRQIGDQEGPRDARST [P20D] the value was 5.07. Still for that read-out and setting: for FGDSPKAEKRQIGDQEGPRTARST [P20T] the value was 5.08; for FGDSPKAEKRQIGDQEGPRPARSR [T24R], 4.68. Turning to FGDSPKAEKRQIGDQEGPRPARSC [T24C], the protein stability index was determined as 4.96. On the same count and under the same terms, for FGDSPKAEKRQIGDQEGPRPARSY [T24Y] the value was 4.74. Take FGDSPKAEKRQIGDQEGPRPARSW [T24W]: the protein stability index was determined as 4.34. Same read-out and setting: for FGDSPKAEKRQIGDQEGPRPARSP [T24P] the value was 5.25.

Consider FGDSPKAEKRQIGDQEGPRPARSM [T24M], for which the protein stability index came out at 4.81.

As to FGWSPKAEKRQIGDQEGPRPARST [D3W], the protein stability index was found to be 3.87.

On to FGASPKAEKRQIGDQEGPRPARST [D3A], for which the protein stability index was 4.79. Turning to FGRSPKAEKRQIGDQEGPRPARST [D3R], the protein stability index came out at 4.97. Same read-out and setting: for FGFSPKAEKRQIGDQEGPRPARST [D3F] the value was 5.01; for FGSSPKAEKRQIGDQEGPRPARST [D3S], 4.89.

On to FGDSPKAEKRQIGDQEGARPARST [P18A], for which the protein stability index turned out to be 5.27. Same read-out and setting: for FGDSPKAEKRQIGDQEGYRPARST [P18Y] the value was 4.5; for FGDSPKAEKRQIGDQEGRRPARST [P18R], 4.78; for FGDSPKAEKRQIGDQEGTRPARST [P18T], 4.69. Still for that read-out and setting: for FGDSPKAEKRQIGDQNGPRPARST [E16N] the value was 4.98. For FGDSPKAEKRQIGDQFGPRPARST [E16F], the protein stability index is 4.55. Same read-out and setting: for FGDSPKAEKRQIGDQTGPRPARST [E16T] the value was 5.03. The same measure, in the same setting: for FGDSPKAEKRQIGDQMGPRPARST [E16M] the value was 4.57; for FGDSPKAEKRCIGDQEGPRPARST [Q11C], 5.06; for FGDSPKAEKRWIGDQEGPRPARST [Q11W], 3.76. As for FGDSPKAEKRLIGDQEGPRPARST [Q11L], the protein stability index amounted to 4.7. Same read-out and setting: for FGDSPKAEKRQIGDPEGPRPARST [Q15P] the value was 5.38; for FSDSPKAEKRQIGDQEGPRPARST [G2S], 4.96; for FADSPKAEKRQIGDQEGPRPARST [G2A], 4.53. The same measure, in the same setting: for FFDSPKAEKRQIGDQEGPRPARST [G2F] the value was 4.63. The same measure, in the same setting: for FCDSPKAEKRQIGDQEGPRPARST [G2C] the value was 4.19; for FYDSPKAEKRQIGDQEGPRPARST [G2Y], 5.18; for FGDSPKAEKRQIGDQEGPWPARST [R19W], 3.25.

On to FGDSPKAEKRQIGDQEGPHPARST [R19H], for which the protein stability index was 3.86. Same read-out and setting: for FGDSPKAEKRQIGDQEEPRPARST [G17E] the value was 5.34; for FGDSPKAEKRQIGDQECPRPARST [G17C], 4.94; for FGDSPKAEKRQIGDQEMPRPARST [G17M], 4.83. Same read-out and setting: for FGDSPKAEKRQIGDQEIPRPARST [G17I] the value was 4.34; for FGDSPKAEKRQRGDQEGPRPARST [I12R], 5.17; for FGDSPKAEKRQIADQEGPRPARST [G13A], 4.98.

For the variant FGDSPKAEKRQILDQEGPRPARST [G13L], the protein stability index was determined as 4.17. Consider FGDSPKAEKRQIDDQEGPRPARST [G13D], for which the protein stability index was determined as 5.53. As for FGDSPKAEKRQIVDQEGPRPARST [G13V], the protein stability index is 4.54.

Turning to FGDSPKAEKRQIKDQEGPRPARST [G13K], the protein stability index turned out to be 5.24.

The values are drawn from the supplement of paper PMC10567573.
